Results as given in patent publication US20250257128A1 (DRAGONBOAT BIOPHARMACEUTICAL SHANGHAI, published 2025).
Positions count from the first letter of the chain named. “And” between values parts separate entries of the source, which are not always exact repeats. Equal values may be shown once.

B1: anti-CD47/anti-CLDN18.2 bispecific antibody B8 (bispecific antibody, human IgG1, kappa)
heavy: not shown
light: DIQMTQSPSSLSASVGDRVTITCRASQDISNHLNWYQQKPGKAPKLLIYYTSRIHSGVPSSFRGSGSGTDYTLTISSLQPEDIATYFCQQGYTLPFTFGSGTKLEIKRTVAAPSVFIFPPSDEQLKSGTASVVCLLNNFYPREAKVQWKVDNALQSGNSQESVTEQDSKDSTYSLSSTLTLSKADYEKHKVYACEVTHQGLSSPVTKSFNRGEC
notes: IgG-like format, human IgG1 / kappa constant regions
B2: anti-CD47/anti-CLDN18.2 bispecific antibody B10 (bispecific antibody, human IgG1, kappa)
heavy: not shown
light: B1 light
notes: IgG-like format; NA3S-H1 VHH at the C-terminus of the heavy chain through Linker1
B3: anti-CD47/anti-CLDN18.2 bispecific antibody B12 (bispecific antibody, human IgG1, kappa)
heavy: not shown
light: B1 light
notes: IgG-like format; NA3S-H1 VHH at the N-terminus of the heavy chain through Linker2 (GGGGS)
B4: anti-CD47/anti-CLDN18.2 bispecific antibody B9 (bispecific antibody, human IgG1, kappa)
heavy: not shown
light: QVQLVESGGGLVQPGGSLRLSCAASGSIFNIPVMGWYRQAPGKQRELVAGISTGGTTNYGDSVKGRFTISRDNAKNTVYLQMNSLKPEDTAVYYCNVLVVSGIGSTLEVWGQGTLVTVSSGGGGSGGGGSDIQMTQSPSSLSASVGDRVTITCRASQDISNHLNWYQQKPGKAPKLLIYYTSRIHSGVPSSFRGSGSGTDYTLTISSLQPEDIATYFCQQGYTLPFTFGSGTKLEIKRTVAAPSVFIFPPSDEQLKSGTASVVCLLNNFYPREAKVQWKVDNALQSGNSQESVTEQDSKDSTYSLSSTLTLSKADYEKHKVYACEVTHQGLSSPVTKSFNRGEC
notes: IgG-like format; NA3S-H1 VHH at the N-terminus of the light chain through Linker1
B5: anti-CD47/anti-CLDN18.2 bispecific antibody B11 (bispecific antibody, human IgG1, kappa)
heavy: not shown
light: B4 light
notes: IgG-like format; NA3S-H1 VHH at the N-terminus of both heavy and light chains
B6: anti-CD47 humanized antibody A7H3L3 (antibody, human IgG1, kappa, V domains shown)
VH: QVQLVQSGAEVKKPGASVKVSCKASGFNIKDIYIYWVRQAPGQGLEWIGKIDPANGNTKYDQKFQGRATITADTSTNTAYLELSSLRSEDTAVYYCARGYGSGFAYWGQGTLVTVSS
VL: DIQMTQSPSSLSASVGDRVTITCRASQDISNHLNWYQQKPGKAPKLLIYYTSRIHSGVPSSFRGSGSGTDYTLTISSLQPEDIATYFCQQGYTLPFTFGSGTKLEIKR
notes: also called A7H3L3 monoclonal antibody; anti-CD47 monoclonal antibody A7H3L3
B7: antibody 1F8 (the 1F8 antibody in WO 2018075857 A1) (antibody, V domains shown)
VH: KVQLVESGGGLVKPGGSLRLSCAASGFTFSNAWMNWVRQAPGKGLEWVGRIKRKTDGETTDYAAPVKGRFSISRDDSKNTLYLQMNSLKTEDTAVYYCAGSNRAFDIWGQGTMVTVSA
VL: DIVMTQSPDSLAVSLGERATINCKSSQSVLYSSNNRNYLAWYQQKPGQPPKLLINQASTRASGVPDRFSGSGSGTEFTLIISSLHAEDVAIYYCQQYYTPPLAFGGGTKLEIK
B8: anti-CD47 antibody F4AM4-IgG1 (antibody, V domains shown)
VH: QVQLVQSGAEVKKPGASVKMSCKASGYTFTSSVMHWVRQAPGQGLEWIGYINPYTDGTKYAQKFQGRATLTSDKSTSTAYMEFSSLRSEDTAVYYCGRPYYGTRYGSWFAYWGQGTLVTVSS
VL: B6 VL with H32Y, I54L, S61R, R63S, S77N, F87Y, Y92K, T93N, L94Y
notes: Positive control anti-CD47 antibody developed by the applicant

Biological target: T1, human CD47 (human, UniProt Q08722 19-323)
T1 construct: whole, on cells; also called CD47 on red blood cells; endogenous CD47 on NUGC-4 cells
T1 sequence (Q08722 19-323): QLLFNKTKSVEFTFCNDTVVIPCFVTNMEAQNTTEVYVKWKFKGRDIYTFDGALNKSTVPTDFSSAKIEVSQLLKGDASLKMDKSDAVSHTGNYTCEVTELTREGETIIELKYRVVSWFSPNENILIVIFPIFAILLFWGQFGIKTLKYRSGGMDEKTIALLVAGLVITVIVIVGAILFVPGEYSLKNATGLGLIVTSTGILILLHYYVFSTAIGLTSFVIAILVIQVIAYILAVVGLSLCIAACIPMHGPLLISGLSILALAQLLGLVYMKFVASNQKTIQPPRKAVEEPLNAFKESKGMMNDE
Assay: flow cytometry on human red blood cells, antibody at 150 µg/mL
Protocol: (§1) Flow cytometry was used to determine whether the bispecific antibody was bound to red blood cells. Another anti-CD47 antibody F4AM4-IgG1 (abbreviated as F4AM4 in the accompanying drawings; the amino acid sequence of the heavy chain is SEQ ID NO: 24, and the amino acid sequence of the light chain is SEQ ID NO: 25) developed by the applicant was used as a positive control antibody.
(§2) The specific method was as follows: red blood cells were isolated from 1 mL of anticoagulant human blood, and the supernatant was aspirated following centrifugation. After the cells were rinsed twice with PBS, 1 mL of PBS was added to resuspend the red blood cells. The red blood cells were diluted to 1×10⁷/mL with PBS, pipetted at 50 μL/well and added to a 96-well round bottom cell culture plate. Then an equal volume of the serially diluted antibody to be tested was added, fully mixed, and incubated at 4° C. for 1 h. After the culture was rinsed with FACS buffer for three times, 0.5 μg of PE-labeled goat anti-human IgG Fc antibody (Abcam, ab98596) was added, followed by incubation at 4° C. for 1 h. Subsequently, the cells were rinsed with FACS buffer for three times and then resuspended by adding 200 μL of FACS buffer, and finally the amount of the antibody binding to the red blood cells (expressed as mean fluorescence intensity (MFI)) was measured by a flow cytometer (Beckman, CytoFLEX AOO-1-1102).

| MFI [MFI] | Binder |
| --- | --- |
| 2140 | B1 |
| 2490 | B2 |
| 2530 | B3 |
| 1220 | B4 |
| 847 | B5 |
| 608 | B6 |

Biological target: T1, human CD47
Assay: flow cytometry, blocking of SIRPα-mFc binding to CD47 on hCLDN18.2-NUGC-4 cells
Protocol: (§3) The specific method was as follows: 1×10⁵ NUGC-4 cells or hCLDN18.2-NUGC-4 cells were taken and centrifuged at a low speed (300 g), and the supernatant was removed. The cells at the bottom of the centrifuge tube were rinsed once with a formulated FACS buffer (1×PBS buffer containing 2% FBS). Subsequently, the serially diluted antibody to be tested was added to the rinsed cells, which were then incubated for 1 h. After the cells were rinsed twice with FACS buffer, 100 μL of 1 μg/mL SIRPα-mFc (ACRO, SIA-H52A8) was added, followed by incubation at 4° C. for 1 h. After the cells were rinsed with FACS buffer for three times, 100 μL of 1:200 diluted PE-labeled goat anti-mouse Fc (Abcam, ab98742) was added as the secondary antibody, followed by incubation at 4° C. for 1 h. After centrifugation, the supernatant was removed, the cells were resuspended by adding 200 μL of FACS buffer, and finally the amount of SIRPα-mFc binding to the cells (expressed as mean fluorescence intensity (MFI)) was measured by a flow cytometer (Beckman, CytoFLEX AOO-1-1102).
Besides, due to the fact that the anti-CLDN18.2 single domain antibody NA3S-H1 was only bound to CLDN18.2, the antibody had no blocking effect.

| IC50 | Binder |
| --- | --- |
| 0.765 µg/mL and 4.48 nM | B2 |
| 12 µg/mL and 82.3 nM | B7 |
| 0.056 µg/mL and 0.383 nM | B8 |

Biological target: T1, human CD47
Assay: flow cytometry, blocking of SIRPα-mFc binding to CD47 on NUGC-4 cells
Protocol: as §3

| IC50 | Binder |
| --- | --- |
| 15.4 µg/mL and 106 nM | B7 |
| 0.033 µg/mL and 0.226 nM | B8 |

Biological target: T1, human CD47
Assay: flow cytometry on human red blood cells, antibody at 15 µg/mL
Protocol: as §1, §2

| MFI [MFI] | Binder |
| --- | --- |
| 988 | B1 |
| 534 | B2 |
| 1620 | B3 |
| 239 | B4 |
| 238 | B5 |
| 463 | B6 |
